Source: doi:10.1101/2021.10.20.465084 (bioRxiv, 2021)
Positions of bridges follow the written chain, without caps; N, C: chain ends. No end group written: not given here. *: point of attachment. Biotin = O=C1N[C@H]2[C@H](CS[C@H]2CCCCC(=O)*)N1; βAla = NCCC(=O)O

T1: Prefoldin from Pyrococcus horikoshii (PhPFD-α2β4 heterohexamer, 86.4 kDa) (Pyrococcus horikoshii, UniProt O58263 1-148; O58268 1-117, S98G)
T1 sequence 1: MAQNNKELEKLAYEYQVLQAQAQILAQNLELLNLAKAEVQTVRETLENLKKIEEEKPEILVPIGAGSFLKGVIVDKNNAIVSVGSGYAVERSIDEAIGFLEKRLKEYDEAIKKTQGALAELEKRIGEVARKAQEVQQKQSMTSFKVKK
T1 sequence 2: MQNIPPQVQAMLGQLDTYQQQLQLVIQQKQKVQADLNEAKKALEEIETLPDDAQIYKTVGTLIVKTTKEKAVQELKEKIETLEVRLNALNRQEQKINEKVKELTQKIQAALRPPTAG


Key:
[1] = biological target: T1, Prefoldin from Pyrococcus horikoshii …; assay: NMR titration
[2] = biological target: T1, Prefoldin from Pyrococcus horikoshii …; assay: BLI

Kd [1]	koff [1]	Kd [2]	Binder
61 µM	~6000 s⁻¹	–	KCNTATCATQRLANFLVHSSNNFGAILSSTNVGSNTY (ends and bridges not checked; also: uniformly [15N]-labelled) [U-[15N]-labelled human islet amyloid polypeptide (IAPP), recombinant, monomeric]
–	–	16 ± 2.4 µM	{Biotin-βAla-βAla}-KCNTATCATQRLANFLVHSSNNFGAILSSTNVGSNTY-NH2 (disulfide 2-7; SMILES CC[C@H](C)[C@H](NC(=O)[C@H](C)NC(=O)CNC(=O)[C@H](Cc1ccccc1)NC(=O)[C@H](CC(N)=O)NC(=O)[C@H](CC(N)=O)NC(=O)[C@H](CO)NC(=O)[C@H](CO)NC(=O)[C@H](Cc1c[nH]cn1)NC(=O)[C@@H](NC(=O)[C@H](CC(C)C)NC(=O)[C@H](Cc1ccccc1)NC(=O)[C@H](CC(N)=O)NC(=O)[C@H](C)NC(=O)[C@H](CC(C)C)NC(=O)[C@H](CCCNC(=N)N)NC(=O)[C@H](CCC(N)=O)NC(=O)[C@@H](NC(=O)[C@H](C)NC(=O)[C@@H]1CSSC[C@H](NC(=O)[C@H](CCCCN)NC(=O)CCNC(=O)CCNC(=O)CCCC[C@@H]2SC[C@@H]3NC(=O)N[C@@H]32)C(=O)N[C@@H](CC(N)=O)C(=O)N[C@@H]([C@@H](C)O)C(=O)N[C@@H](C)C(=O)N[C@@H]([C@@H](C)O)C(=O)N1)[C@@H](C)O)C(C)C)C(=O)N[C@@H](CC(C)C)C(=O)N[C@@H](CO)C(=O)N[C@@H](CO)C(=O)N[C@H](C(=O)N[C@@H](CC(N)=O)C(=O)N[C@H](C(=O)NCC(=O)N[C@@H](CO)C(=O)N[C@@H](CC(N)=O)C(=O)N[C@H](C(=O)N[C@@H](Cc1ccc(O)cc1)C(N)=O)[C@@H](C)O)C(C)C)[C@@H](C)O) [biotinylated IAPP (biotinyl-[β-Ala]-[β-Ala]-IAPP-NH2)]
